T1: full-length human Robo 4 (on cells) (human, UniProt Q8WZ75 28-1007)
T1 sequence: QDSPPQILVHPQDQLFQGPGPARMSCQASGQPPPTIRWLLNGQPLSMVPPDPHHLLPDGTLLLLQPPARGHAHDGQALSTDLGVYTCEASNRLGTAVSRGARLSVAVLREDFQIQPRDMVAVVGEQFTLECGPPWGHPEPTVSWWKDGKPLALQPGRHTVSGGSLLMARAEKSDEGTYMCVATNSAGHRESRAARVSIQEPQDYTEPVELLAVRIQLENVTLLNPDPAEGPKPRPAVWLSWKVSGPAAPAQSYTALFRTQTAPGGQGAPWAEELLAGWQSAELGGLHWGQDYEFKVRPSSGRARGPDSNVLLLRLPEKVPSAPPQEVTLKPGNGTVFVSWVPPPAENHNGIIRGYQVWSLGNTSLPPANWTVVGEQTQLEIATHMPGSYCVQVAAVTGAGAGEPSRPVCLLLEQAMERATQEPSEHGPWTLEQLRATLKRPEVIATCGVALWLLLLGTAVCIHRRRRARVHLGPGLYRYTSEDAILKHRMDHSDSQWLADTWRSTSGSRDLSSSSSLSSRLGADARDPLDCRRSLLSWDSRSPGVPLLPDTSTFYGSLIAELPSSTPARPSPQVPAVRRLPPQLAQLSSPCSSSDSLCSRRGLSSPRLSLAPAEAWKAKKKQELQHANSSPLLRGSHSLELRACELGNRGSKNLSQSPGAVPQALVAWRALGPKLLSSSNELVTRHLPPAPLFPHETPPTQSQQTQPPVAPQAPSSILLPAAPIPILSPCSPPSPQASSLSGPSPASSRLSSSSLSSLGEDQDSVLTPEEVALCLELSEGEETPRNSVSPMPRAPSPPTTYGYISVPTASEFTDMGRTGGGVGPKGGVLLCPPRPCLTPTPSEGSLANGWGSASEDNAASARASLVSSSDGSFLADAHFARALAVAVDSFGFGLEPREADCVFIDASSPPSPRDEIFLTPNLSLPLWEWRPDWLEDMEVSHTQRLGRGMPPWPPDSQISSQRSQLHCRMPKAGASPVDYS

B1: Molecule L, 2+1 Fab-Fab-CrossFab (VH/VL exchange in CD3 binder, CD3 binder V9, Robo 4 binders 01F05) (bispecific antibody)
chain 1: QVQLKQSGAELVKPGASVKISCKTSVYTFTYGYMHWVEQKPGQGLEWIGRIDPDSGNSMYNQKFQGRATLTRDKSSSTVYMELRSLTSEDSAVYYCARSMRYSGYRDYALDLWGQGTQVTVSSASTKGPSVFPLAPSSKSTSGGTAALGCLVKDYFPEPVTVSWNSGALTSGVHTFPAVLQSSGLYSLSSVVTVPSSSLGTQTYICNVNHKPSNTKVDKKVEPKSCDGGGGSGGGGSQVQLKQSGAELVKPGASVKISCKTSVYTFTYGYMHWVEQKPGQGLEWIGRIDPDSGNSMYNQKFQGRATLTRDKSSSTVYMELRSLTSEDSAVYYCARSMRYSGYRDYALDLWGQGTQVTVSSASTKGPSVFPLAPSSKSTSGGTAALGCLVKDYFPEPVTVSWNSGALTSGVHTFPAVLQSSGLYSLSSVVTVPSSSLGTQTYICNVNHKPSNTKVDKKVEPKSCDGGGGSGGGGSDIQMTQSPSSLSASVGDRVTITCRASQDIRNYLNWYQQKPGKAPKLLIYYTSRLESGVPSRFSGSGSGTDYTLTISSLQPEDFATYYCQQGNTLPWTFGQGTKVEIKSSASTKGPSVFPLAPSSKSTSGGTAALGCLVKDYFPEPVTVSWNSGALTSGVHTFPAVLQSSGLYSLSSVVTVPSSSLGTQTYICNVNHKPSNTKVDKKVEPKSC
chain 2: QLVLTQSPSASASLGASVKLTCTLSSQHSSYGITWLQQHPDKAPKYVMYLKSDGSHTKGADIPDRFSGSSSGVHRYLSISNVQPEDEAIYFCVTYDSTHVFGSGTQLTVLGQPKAAPSVTLFPPSSEELQANKATLVCLISDFYPGAVTVAWKADSSPVKAGVETTTPSKQSNNKYAASSYLSLTPEQWKSHRSYSCQVTHEGSTVEKTVAPTECS
chain 3: EVQLVESGGGLVQPGGSLRLSCAASGYSFTGYTMNWVRQAPGKGLEWVALINPYKGVSTYNQKFKDRFTISVDKSKNTAYLQMNSLRAEDTAVYYCARSGYYGDSDWYFDVWGQGTLVTVSSASVAAPSVFIFPPSDEQLKSGTASVVCLLNNFYPREAKVQWKVDNALQSGNSQESVTEQDSKDSTYSLSSTLTLSKADYEKHKVYACEVTHQGLSSPVTKSFNRGEC
B2: Molecule H, 1+1 Fab-CrossFab (VH/VL exchange in CD3 binder, CD3 binder V9, Robo 4 binder 7G2) (bispecific antibody)
chain 1: not shown
chain 2: EIVLTQSPGTLSLSPGERATLSCRASQSVSSSYLAWYQQKPGQAPRLLIYGASSRATGIPDRFSGSGSGTDFTLTISRLEPEDFAVYYCQQGQLPPRTFGQGTKVEIKRTVAAPSVFIFPPSDEQLKSGTASVVCLLNNFYPREAKVQWKVDNALQSGNSQESVTEQDSKDSTYSLSSTLTLSKADYEKHKVYACEVTHQGLSSPVTKSFNRGEC
chain 3: B1 chain 3
B3: Molecule A, 1+1 CrossFab-IgG (VH/VL exchange in CD3 binder, CD3 binder V9, Robo 4 binder 01F09) (bispecific antibody)
chain 1: not shown
chain 2: QPVLTQSPSASASLGASVKLTCTLNSQFSTYNIGWYQQHRDKPPKYVMFVKGDGGHSKADGIPDRFSGSSSGADRYLTISNIQAEDEAIYFCGADYNNAGQYGCVFGSGTHFTVLGQPKAAPSVTLFPPSSEELQANKATLVCLISDFYPGAVTVAWKADSSPVKAGVETTTPSKQSNNKYAASSYLSLTPEQWKSHRSYSCQVTHEGSTVEKTVAPTECS
chain 3: B1 chain 3
chain 4: DKTHTCPPCPAPEAAGGPSVFLFPPKPKDTLMISRTPEVTCVVVDVSHEDPEVKFNWYVDGVEVHNAKTKPREEQYNSTYRVVSVLTVLHQDWLNGKEYKCKVSNKALGAPIEKTISKAKGQPREPQVCTLPPSRDELTKNQVSLSCAVKGFYPSDIAVEWESNGQPENNYKTTPPVLDSDGSFFLVSKLTVDKSRWQQGNVFSCSVMHEALHNHYTQKSLSLSPGK
B4: Molecule D, 1+1 CrossFab-IgG (VH/VL exchange in CD3 binder, CD3 binder V9, Robo 4 binder 7G2) (bispecific antibody)
chain 1: not shown
chain 2: B2 chain 2
chain 3: B1 chain 3
chain 4: B3 chain 4

Assays:
[1] = biological target: T1, full-length human Robo 4 (on cells); experiment: cell-based or functional assay
[2] = biological target: T1, full-length human Robo 4 (on cells); experiment: cell-based or functional assay; remark: listed apart in the source

Binder	EC50 of T-cell mediated killing of HUVECs (LDH release, human PBMCs, E:T 10:1), 24 h [1]	EC50 of T-cell mediated killing of HUVECs (LDH release, human PBMCs, E:T 10:1), 48 h [1]	EC50 of T-cell mediated killing of HUVECs (LDH release, human pan T cells, E:T 5:1, 22 h) [2]
B1	0.372 nM	0.236 nM	
B2			2.76 nM
B3			0.137 nM
B4			3.14 nM

From patent publication US20180282410A1 (Hoffmann-La Roche, published 2018)
